Target: T1, ScSch9-His (S. cerevisiae, UniProt P11792 1-824)
T1 construct: Sch9 kinase of S. cerevisiae; SCH9 synthesized with a C-terminal 6xHis tag and cloned into the E. coli expression vector p41; also called recombinant ScSch9-His; source: E. coli BL21(DE3), purified (IMAC, Ni-NTA Sepharose); not shown: 6xHis, C-terminal, kept
T1 sequence (looked up): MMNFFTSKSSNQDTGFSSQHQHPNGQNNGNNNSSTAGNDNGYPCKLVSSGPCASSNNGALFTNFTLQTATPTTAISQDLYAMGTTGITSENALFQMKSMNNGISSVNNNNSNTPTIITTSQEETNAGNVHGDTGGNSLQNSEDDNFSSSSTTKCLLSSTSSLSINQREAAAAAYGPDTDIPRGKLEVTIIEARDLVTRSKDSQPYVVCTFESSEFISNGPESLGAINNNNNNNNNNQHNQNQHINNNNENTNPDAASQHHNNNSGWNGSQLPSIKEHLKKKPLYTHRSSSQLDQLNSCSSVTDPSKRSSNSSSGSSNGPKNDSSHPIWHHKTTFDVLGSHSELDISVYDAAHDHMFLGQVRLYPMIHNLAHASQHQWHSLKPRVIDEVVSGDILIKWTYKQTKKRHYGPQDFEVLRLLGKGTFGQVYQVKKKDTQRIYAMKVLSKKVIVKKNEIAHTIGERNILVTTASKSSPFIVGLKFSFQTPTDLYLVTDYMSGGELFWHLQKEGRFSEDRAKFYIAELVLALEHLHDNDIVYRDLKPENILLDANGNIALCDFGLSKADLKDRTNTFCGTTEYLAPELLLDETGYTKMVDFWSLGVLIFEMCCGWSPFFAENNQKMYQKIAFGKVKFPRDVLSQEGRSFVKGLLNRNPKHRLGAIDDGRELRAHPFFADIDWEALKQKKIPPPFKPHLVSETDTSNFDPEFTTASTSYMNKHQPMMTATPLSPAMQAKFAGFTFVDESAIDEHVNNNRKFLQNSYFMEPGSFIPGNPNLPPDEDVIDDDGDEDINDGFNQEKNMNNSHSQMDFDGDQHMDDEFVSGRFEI
Experiment: co-IP; endogenous ScCst6 precipitated from S. cerevisiae WT lysate with rabbit anti-Cst6 antibody, bound to protein-G Sepharose beads, washed (IP buffer plus 500 mM NaCl), then incubated with 20 µg recombinant ScSch9-His for 3 h at 4°C; extensive washing; Western blot (anti-ScCst6, anti-6xHis)
Conditions: both partners purified

B1: ScCst6 (endogenous) (natural protein, UniProt P40535 1-587, looked up)
chain: MFTGQEYHSVDSNSNKQKDNNKRGIDDTSKILNNKIPHSVSDTSAAATTTSTMNNSALSRSLDPTDINYSTNMAGVVDQIHDYTTSNRNSLTPQYSIAAGNVNSHDRVVKPSANSNYQQAAYLRQQQQQDQRQQSPSMKTEEESQLYGDILMNSGVVQDMHQNLATHTNLSQLSSTRKSAPNDSTTAPTNASNIANTASVNKQMYFMNMNMNNNPHALNDPSILETLSPFFQPFGVDVAHLPMTNPPIFQSSLPGCDEPIRRRRISISNGQISQLGEDIETLENLHNTQPPPMPNFHNYNGLSQTRNVSNKPVFNQAVPVSSIPQYNAKKVINPTKDSALGDQSVIYSKSQQRNFVNAPSKNTPAESISDLEGMTTFAPTTGGENRGKSALRESHSNPSFTPKSQGSHLNLAANTQGNPIPGTTAWKRARLLERNRIAASKCRQRKKVAQLQLQKEFNEIKDENRILLKKLNYYEKLISKFKKFSKIHLREHEKLNKDSDNNVNGTNSSNKNESMTVDSLKIIEELLMIDSDVTEVDKDTGKIIAIKHEPYSQRFGSDTDDDDIDLKPVEGGKDPDNQSLPNSEKIK
notes: Transcription factor Cst6 (ATF/CREB family) of S. cerevisiae, endogenous protein of the wild type (BY4741); also called endogenous ScCst6; source: endogenous, S. cerevisiae WT lysate, immunopurified with anti-Cst6 antibody on protein-G Sepharose beads
B1: binds.

Source: publication PMC5263247, “Lipid Signaling via Pkh1/2 Regulates Fungal CO2 Sensing through the Kinase Sch9” (mBio, 2017)
